Biological target: T1, RV3 preF OnlyEcto (Human respirovirus 3 (HPIV3), strain …, stabilised)
T1 construct: also called RV3 preF lead candidate; source: Expi293F, transfected, purified (Capto Q Impress, SEC)
Assay: BLI; kinetic Octet; […] (0-900 s), […] (900-1800 s)
Settings: both partners purified

B1: single-domain antibody (sdAb) 4C06 (VHH)
VHH: EVQLVESGGGLVQPGGSLRLSCSASGSLSTIKALGWYRRAPGRERELVASITSAGETNYADSAKGRFTVSTDNAKNTVDLRMNSLKPEDTAVYYCYAESFVLNIYWGQGTQVTVSS
notes: also called VHH 4C06
binding result: binds

From publication PMC11143371 (Nature Communications, 2024)
